In publication PMC11566000:

Target: T1, SloR (purified native) (UniProt I6L923 1-217)
T1 sequence: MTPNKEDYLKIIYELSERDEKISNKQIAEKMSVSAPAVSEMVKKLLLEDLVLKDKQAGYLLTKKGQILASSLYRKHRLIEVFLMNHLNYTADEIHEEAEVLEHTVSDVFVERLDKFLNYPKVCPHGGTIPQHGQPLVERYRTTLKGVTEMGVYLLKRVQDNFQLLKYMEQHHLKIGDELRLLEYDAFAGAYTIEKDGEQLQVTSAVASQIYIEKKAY
Assay: BLI

B1: mntH.22.SRE3.WT (dsDNA)
DNA 1: CAGTAATTCTTACAAACTCTTT
DNA 2: AAAGAGTTTGTAAGAATTACTG
- binding result: no binding
